Results reported in the supplement of paper PMC7877785.
± gives the uncertainty stated by the source.

Assay: self-splicing fitness, log relative to wild type (ln ratio); higher = more splicing; Tetrahymena group I intron in knt gene, E. coli kanamycin selection, DiMSum; sequences stand for … in CUCUCU…GGAGGGAAAAGUUAUCAGGCAUGCACCUGGUAGCUAGUCUUUAAACCAAUAGAUUGCAUCGGUUUAAAAGGCAAGACCGUCAAAUUGCGGGAAAGGGGUCAACAGCCGUUCAGUACCAAGUCUCAGGGGAAACUUUGAGAUGGCCUUGCAAAGGGUAUGGUAAUAAGCUGACGGACAUGGUCCUAACCACGCAGCCAAGUCCUAAGUCAACAGAUCUUCUGUUGAUAUGGAUGCAGUUCACAGACUAAAUGUCGGUCGGGGAAGAUGUAUUCUUCUCAUAAGAUAUAGUCGGACCUCUCCUUAAUGGGAGCUAGCGGAUGAAGUGAUGCAACACUGGAGCCGCUGGGAACUAAUUUGUAUGCGAAAGUAUAUUGAUUAGUUUUGGAGUACUCGUGGUCG
How it was run: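 Six replicate transformations of E. coli BL21(DE3) with a pET-22b(+) library were grown overnight at 37°C or 30°C. The library randomised all eight P1ex-region intron nucleotides, the intron lying in the knt kanamycin-resistance gene, and plates were LB agar with or without 25 μg/mL kanamycin plus 100 μg/mL carbenicillin, 50 μM IPTG and 0.2% rhamnose. Pooled colonies were amplicon-sequenced on an Illumina HiSeq 2500, and fitness is the DiMSum error-weighted combination of wild-type-normalised replicate fold changes, kanamycin versus none.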

Row | Sequence | self-splicing fitness (ln) (30 °C) | self-splicing fitness (ln) (37 °C)
1 | GUAUAGCAAUAUUACGCCUU | -2.11 ± 0.29 | -0.499 ± 0.24
2 | CUGUAGCAAUAUUACGCAAU | -2.63 ± 0.36 | -1.99 ± 0.25
3 | UCAAAGCAAUAUUACGUGCG | -1.13 ± 0.045 | -0.496 ± 0.064
4 | AACCAGCAAUAUUACGCAUG | -1.7 ± 0.082 | -0.971 ± 0.083
5 | GGUUAGCAAUAUUACGGUUA | -1.23 ± 0.11 | -0.486 ± 0.082
6 | CAAAAGCAAUAUUACGGAAG | -1.23 ± 0.049 | -0.438 ± 0.071
7 | CGCUAGCAAUAUUACGUCCG | -0.673 ± 0.092 | -0.4 ± 0.11
8 | AUUGAGCAAUAUUACGCCUA | -1.99 ± 0.2 | -1.52 ± 0.2
9 | UCGUAGCAAUAUUACGUGGU | -3.45 ± 0.4 | -2.67 ± 0.48
10 | UCUCAGCAAUAUUACGGGAA | -2.28 ± 0.17 | -0.762 ± 0.11
11 | UGUAAGCAAUAUUACGAGGA | -2.17 ± 0.36 | -2.61 ± 0.34
12 | CACUAGCAAUAUUACGGGUG | -4.03 ± 0.36 | -2.57 ± 0.21
13 | CCGGAGCAAUAUUACGGGCU | -3.52 ± 0.35 | -3.75 ± 0.42
14 | CACCAGCAAUAUUACGAACG | 0.223 ± 0.063 | 0.344 ± 0.078
15 | AGGGAGCAAUAUUACGUGUU | -2.63 ± 0.31 | -1.73 ± 0.29
16 | AAUUAGCAAUAUUACGGCAC | -1.11 ± 0.16 | -0.154 ± 0.21
17 | GUGAAGCAAUAUUACGAACA | -0.242 ± 0.076 | 0.0414 ± 0.11
18 | AAGUAGCAAUAUUACGCCUC | -1.63 ± 0.27 | –
19 | AUCGAGCAAUAUUACGAACG | -2.49 ± 0.22 | -1.65 ± 0.33
20 | ACCUAGCAAUAUUACGCCGC | -2.21 ± 0.32 | -2.05 ± 0.4
21 | GUGGAGCAAUAUUACGCACU | 0.427 ± 0.33 | –
22 | GAUGAGCAAUAUUACGCUGG | -2.08 ± 0.18 | -1.02 ± 0.3
23 | UAUAAGCAAUAUUACGACCA | -0.816 ± 0.092 | 0.038 ± 0.12
24 | UUUAAGCAAUAUUACGAAGU | – | -1.62 ± 0.45
25 | CCAUAGCAAUAUUACGUGUU | -3.47 ± 0.14 | -3.36 ± 0.16

Row | Sequence | self-splicing fitness (ln) (30 °C) | self-splicing fitness (ln) (37 °C)
26 | GAUCAGCAAUAUUACGAUAA | 0.273 ± 0.069 | 0.106 ± 0.076
27 | GGCGAGCAAUAUUACGGAGU | -3.06 ± 0.4 | -1.68 ± 0.4
28 | GGUCAGCAAUAUUACGUUGG | -3.35 ± 0.21 | -2.51 ± 0.2
29 | AAGUAGCAAUAUUACGUAUU | -1.97 ± 0.11 | -1.07 ± 0.14
30 | GAUGAGCAAUAUUACGGCUA | -1.01 ± 0.17 | -1.41 ± 0.17
31 | GAGUAGCAAUAUUACGGCGC | -0.602 ± 0.14 | 0.407 ± 0.19
32 | AAUUAGCAAUAUUACGUUAU | -2.88 ± 0.18 | -1.11 ± 0.12
33 | AACAAGCAAUAUUACGGUAC | -3.04 ± 0.16 | -1.99 ± 0.18
34 | AUUAAGCAAUAUUACGGAUG | -2.15 ± 0.14 | -2.02 ± 0.22
35 | GCAUAGCAAUAUUACGGUGU | -4.14 ± 0.23 | -2.47 ± 0.2
36 | CGGUAGCAAUAUUACGAACG | -1.54 ± 0.13 | -1.29 ± 0.14
37 | CGGCAGCAAUAUUACGACUU | -0.541 ± 0.06 | -0.196 ± 0.08
38 | GGCAAGCAAUAUUACGGGUG | -0.914 ± 0.055 | -0.195 ± 0.066
39 | UCUCAGCAAUAUUACGGCCU | – | -1.67 ± 0.34
40 | AUGAAGCAAUAUUACGCUCA | 0.436 ± 0.068 | 0.555 ± 0.082
41 | UGGAAGCAAUAUUACGAUGA | -0.768 ± 0.18 | -0.0449 ± 0.17
42 | AGUGAGCAAUAUUACGAGCG | -0.459 ± 0.1 | -0.0795 ± 0.13
43 | UAGGAGCAAUAUUACGUAAU | -3.15 ± 0.34 | –
44 | ACUAAGCAAUAUUACGAUAG | -1.34 ± 0.076 | -0.427 ± 0.096
45 | AAAAAGCAAUAUUACGUUUC | -2.04 ± 0.13 | -3.26 ± 0.28
46 | ACUCAGCAAUAUUACGUAGU | -2.86 ± 0.13 | -1.35 ± 0.12
47 | UGUUAGCAAUAUUACGUCUG | -0.698 ± 0.12 | 0.393 ± 0.15
48 | AAUUAGCAAUAUUACGGAUU | -2.2 ± 0.12 | -1.3 ± 0.14
49 | AGACAGCAAUAUUACGACAA | -1.34 ± 0.12 | -1.02 ± 0.12
50 | UAGCAGCAAUAUUACGCGCA | -0.588 ± 0.11 | -0.487 ± 0.095

Row | Sequence | self-splicing fitness (ln) (30 °C) | self-splicing fitness (ln) (37 °C)
51 | CACUAGCAAUAUUACGCAGU | -4.15 ± 0.42 | -2.78 ± 0.33
52 | CGCAAGCAAUAUUACGCUGA | -3.11 ± 0.26 | -2.01 ± 0.22
53 | CUUUAGCAAUAUUACGAAGA | – | -2.43 ± 0.34
54 | GAGCAGCAAUAUUACGUAAU | -1.59 ± 0.063 | -0.994 ± 0.1
55 | AGAUAGCAAUAUUACGGUAU | -1.43 ± 0.098 | -0.614 ± 0.1
56 | CGCGAGCAAUAUUACGCAAG | -2.92 ± 0.27 | -2.91 ± 0.43
57 | ACUAAGCAAUAUUACGAAUG | -2.31 ± 0.13 | -1.2 ± 0.14
58 | GGAUAGCAAUAUUACGCUCU | -1.63 ± 0.26 | –
59 | AGAUAGCAAUAUUACGCGUG | -1.44 ± 0.1 | -1.01 ± 0.12
60 | GAUCAGCAAUAUUACGUCCA | -0.96 ± 0.18 | -0.173 ± 0.17
61 | UUAAAGCAAUAUUACGCAGG | -0.165 ± 0.12 | -0.592 ± 0.15
62 | CGUCAGCAAUAUUACGCACA | -0.869 ± 0.09 | 0.0106 ± 0.13
63 | CCCAAGCAAUAUUACGACUC | -3.56 ± 0.33 | -2.1 ± 0.33
64 | UAGCAGCAAUAUUACGCCUA | -0.551 ± 0.13 | 0.446 ± 0.15
65 | GCGAAGCAAUAUUACGAAUG | -1.95 ± 0.15 | -0.756 ± 0.17
66 | CACAAGCAAUAUUACGGUAC | -4.11 ± 0.22 | -2.03 ± 0.17
67 | CGGUAGCAAUAUUACGGCUA | -1.59 ± 0.2 | -2.01 ± 0.28
68 | GGUCAGCAAUAUUACGAUAG | -1.37 ± 0.077 | 0.0315 ± 0.1
69 | UGGGAGCAAUAUUACGAAGU | – | -1.21 ± 0.3
70 | GAAAAGCAAUAUUACGCGUC | -4.29 ± 0.27 | -2.78 ± 0.24
71 | CGAAAGCAAUAUUACGGUUU | -2.51 ± 0.095 | -1.51 ± 0.11
72 | GACAAGCAAUAUUACGCCUU | -1.15 ± 0.14 | -1.04 ± 0.13
73 | UAGAAGCAAUAUUACGUUAC | -3.73 ± 0.32 | -2.79 ± 0.27
74 | CGGCAGCAAUAUUACGGGGA | -3.21 ± 0.16 | -3.07 ± 0.21
75 | CCUGAGCAAUAUUACGUAGG | -2.55 ± 0.15 | -2.24 ± 0.32

Row | Sequence | self-splicing fitness (ln) (30 °C) | self-splicing fitness (ln) (37 °C)
76 | GCUCAGCAAUAUUACGGAUU | -0.53 ± 0.051 | 0.362 ± 0.075
77 | ACACAGCAAUAUUACGAAUU | -3.01 ± 0.084 | -2.02 ± 0.1
78 | AGAUAGCAAUAUUACGGGCG | -1.16 ± 0.14 | 0.433 ± 0.15
79 | AUCGAGCAAUAUUACGACAU | -0.347 ± 0.013 | 0.0643 ± 0.033
80 | CUCCAGCAAUAUUACGCGGG | -3.86 ± 0.24 | -1.82 ± 0.23
81 | GUUUAGCAAUAUUACGUGGG | -3.78 ± 0.37 | -2.45 ± 0.23
82 | CUAAAGCAAUAUUACGGUGG | -0.649 ± 0.064 | -0.0443 ± 0.08
83 | UAUCAGCAAUAUUACGUCUC | -2.46 ± 0.24 | -1.13 ± 0.24
84 | AGUCAGCAAUAUUACGAAAC | – | -1.45 ± 0.28
85 | GGUGAGCAAUAUUACGAUAG | -0.576 ± 0.23 | -2.81 ± 0.34
86 | UUCAAGCAAUAUUACGGUUU | -3.08 ± 0.21 | -1.84 ± 0.17
87 | CGUAAGCAAUAUUACGCACA | -1.37 ± 0.18 | -0.0497 ± 0.23
88 | ACUUAGCAAUAUUACGUGCA | -1.1 ± 0.055 | -0.535 ± 0.072
89 | CGUCAGCAAUAUUACGCAAU | -1.37 ± 0.1 | -2.12 ± 0.24
90 | GGACAGCAAUAUUACGCGGA | -0.693 ± 0.081 | 0.416 ± 0.074
91 | GUCUAGCAAUAUUACGUAGC | -1.45 ± 0.15 | 0.302 ± 0.2
92 | CGGCAGCAAUAUUACGCUAU | -3.57 ± 0.28 | -2.75 ± 0.26
93 | AGAUAGCAAUAUUACGGAUA | -4.2 ± 0.42 | -1.23 ± 0.23
94 | CCGGAGCAAUAUUACGUGAA | – | -1.86 ± 0.31
95 | AUUGAGCAAUAUUACGCGGU | -2.19 ± 0.19 | –
96 | CCACAGCAAUAUUACGACUC | -2.46 ± 0.18 | -2.76 ± 0.3
97 | AGCGAGCAAUAUUACGCGAA | -2.39 ± 0.36 | -1.21 ± 0.32
98 | CAAGAGCAAUAUUACGCCAU | -3.2 ± 0.23 | -2.02 ± 0.28
